Each block holds one binder with its values, some of them ahead of it.
Legend:
[1] = target: T1, native human Apolipoprotein L1 (ApoL1), in purified TLF / HDL float / normal human serum / endogenous in … (human, UniProt O14791 28-398); assay: Western blot of column purified TLF (2 ug), non-reducing and reducing
T1 construct: Secreted native protein carried on HDL/TLF particles; also called Native ApoL1; endogenous ApoL1
T1 sequence: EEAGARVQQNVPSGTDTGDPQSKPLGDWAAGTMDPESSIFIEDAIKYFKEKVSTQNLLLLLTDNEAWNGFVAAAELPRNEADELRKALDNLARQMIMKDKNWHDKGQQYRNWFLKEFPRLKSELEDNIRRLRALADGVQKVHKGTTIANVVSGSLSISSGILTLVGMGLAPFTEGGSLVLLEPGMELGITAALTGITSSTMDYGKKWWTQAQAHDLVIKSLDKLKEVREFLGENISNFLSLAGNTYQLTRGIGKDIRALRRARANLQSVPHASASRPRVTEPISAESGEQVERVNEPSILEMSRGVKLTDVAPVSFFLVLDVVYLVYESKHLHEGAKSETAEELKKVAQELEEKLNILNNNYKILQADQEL

[2] = target: T2, ApoL1 Protein, human recombinant (Sino Biological 13910-H08B) (human, UniProt O14791 28-398); assay: dot blot (native)
T2 construct: also called rApoL1; recombinant ApoL1
T2 sequence: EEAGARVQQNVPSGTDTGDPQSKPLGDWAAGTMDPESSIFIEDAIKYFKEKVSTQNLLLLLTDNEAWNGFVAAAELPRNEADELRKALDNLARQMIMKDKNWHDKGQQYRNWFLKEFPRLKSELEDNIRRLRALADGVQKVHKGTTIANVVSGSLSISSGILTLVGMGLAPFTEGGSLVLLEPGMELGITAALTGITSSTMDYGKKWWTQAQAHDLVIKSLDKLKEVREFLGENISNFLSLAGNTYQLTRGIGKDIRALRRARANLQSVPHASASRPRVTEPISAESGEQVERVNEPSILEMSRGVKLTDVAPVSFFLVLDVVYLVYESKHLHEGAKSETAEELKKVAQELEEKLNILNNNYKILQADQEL

[3] = target: T2, ApoL1 Protein, human recombinant (Sino …); assay: Western blot of recombinant ApoL1 (SDS-PAGE, non-reducing and reducing)
[4] = target: T2, ApoL1 Protein, human recombinant (Sino …); assay: imaging flow cytometry: RPMI 8226 cells pre-incubated with 30 µg/mL bsAb or isotype control, then Alexa-488 labeled recombinant ApoL1
Procedure: Cells were prepared as above with the addition of 15 μg/mL unlabeled ApoL1 in the blocking buffer for overnight incubation. After blocking, cells were washed 2 times with CSB and aliquoted to 50 μl aliquots for each reaction. First, bsAb or isotype control was added at 30 μg/mL for 1.5 hours, followed by 2 washes and […] of Alexa labeled ApoL1-488. Cells were incubated for 1 hour and washed 3 times with the final wash resuspended in 50 μl of CSB.
Imaging flow cytometry acquisition was performed on an ImageStream X MK II (Luminex Corporation, Seattle, Washington) with fluidics set at low speed, sensitivity set to high, magnification set to 60×, and illumination set to: 405:120 mW, 488:200 mW, 561:200 mW, 642:150 mW, SSC:4.38 mW. All samples were acquired using the autosampler with INSPIRE software for an acquisition time of 4000 events or 8 minutes per sample, with events counting SSC channel from 5.2×10\hat{ }5 to 8.9×10\hat{ }7. Gates were set and quantified using IDEAS software version 6.2.
Next, Alexa-488 labeled recombinant ApoL1 was used to determine if cell bound bsAb can bind ApoL1. Some background binding of labeled ApoL1 to cells without bsAb, likely due to existing binding affinities for ApoL1 to cell membranes, was foreseen. […]

[5] = target: T3, BCMA on RPMI 8226 (ATCC CCL-155) multiple myeloma cells (UniProt Q02223 1-184, limits assumed); assay: imaging flow cytometry on fixed RPMI 8226 cells; Alexa-488 labeled bsAb at 3 µg/mL against Alexa-488 labeled human IgG1 isotype control
T3 construct: whole, on cells; No BCMA-negative cell control is reported; also called MM cells
T3 sequence (looked up): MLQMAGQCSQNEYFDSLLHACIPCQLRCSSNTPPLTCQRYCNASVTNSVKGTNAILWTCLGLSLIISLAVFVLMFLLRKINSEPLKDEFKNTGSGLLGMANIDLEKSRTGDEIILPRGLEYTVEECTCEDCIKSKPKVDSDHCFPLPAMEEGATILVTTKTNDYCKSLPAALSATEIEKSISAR
Procedure: Cells were cultured according to standard protocols. All cell pelleting were performed at 300× g for 5 minutes at 4 C. One to two days prior to the experiment, cells were washed and split to achieve a cell density of approximately […] in a total volume of 10-30 mL containing 10 nM LY411575 (LY). On the day of the experiment, Zombie NIR dye (BioLegend Cat. 423106) was diluted 1:100 in phosphate-buffered saline (PBS). Cells were washed and resuspended in PBS with Zombie NIR dye at a concentration of 1×10\hat{ }7 cells/mL and incubated for 10 minutes at room temperature. […]
Imaging flow cytometry acquisition was performed on an ImageStream X MK II (Luminex Corporation, Seattle, Washington) with fluidics set at low speed, sensitivity set to high, magnification set to 60×, and illumination set to: 405:120 mW, 488:200 mW, 561:200 mW, 642:150 mW, SSC:4.38 mW. […] Gates were set and quantified using IDEAS software version 6.2.
Imaging flow cytometry was used as an assay to determine if the ApoL1-BCMA-bsAb (bsAb) of Example 8 binds the two intended targets in vitro. First, the bsAb and a human IgG1 isotype control were Alexa-488 labeled and binding affinities were determined by measuring total cellular florescence after incubation. […]

[6] = target: T2, ApoL1 Protein, human recombinant (Sino …); assay: bridging ELISA control without bsAb (bsAb-): immobilized ApoL1, then rabbit Fc tagged BCMA, detected with anti-rabbit HRP
Procedure: Enzyme-Linked Immunosorbent Assay (ELISA) plates were prepared by incubating them overnight at 4° C. with their respective immobilization buffer (bicarbonate/carbonate coating buffer 100 mM) or blocking buffer (PBS, 0.1% Tween-20, 1% BSA).
For the bridging ELISA experiments, ApoL1 (Sino Cat.13910-H08B) or BCMA (Sino Cat. 10620-H15H) were resuspended at a 1:10,000 dilution in ELISA binding buffer (1×PBST+1% BSA) and then incubated overnight at 4° C. ApoL1 was immobilized across all conditions except where BCMA was immobilized as a primary protein (ApoL1-*). Following immobilization, 100 μl of bispecific antibody (bsAb, […] in ELISA blocking buffer) was added and allowed to incubate for 1 hour at 37° C. Subsequently, each well underwent four rounds of 150 μl washes with 1×PBST. Next, 1 μg/mL rabbit Fc tagged BCMA in ELISA blocking buffer was allowed to incubate for 1 hr at 37° C. followed by four more rounds of 150 μl 1×PBST washes. A secondary binding component, anti-rabbit HRP, was added at 1:10,000 and the plate was incubated for an additional hour at 37° C. followed by another four rounds of 150 μl washes with 1×PBST. […] The reaction was halted by adding 50 μl of Stop Solution, and the absorbance was promptly measured at 450 nm on a SpectraMax iD3 plate reader ([…]).

binding result [1]: binds | binding result [2]: binds
B1: ascites Prot-G purified anti-ApoL1 antibody, clone SFIII 13.11 (mouse IgG1) (antibody, V domains shown)
VH: EVQLVESGGGLVKPGGSLKLSCAASGFTFSTYAMSWVRQSPEKRLEWVAEISNGGLYTYYPDTVTGRFTISRDNVKNILYLEMSSLRSEDTAIYYCIRENRNWYFDLWGAGTTVTVSS
VL: DVLMTQTPLSLPVSLGDQASISCRSSQSIVNSNGNTYLEWYLQKPGQSPKLLIYKVSNRFSGVPDRFSGSGSGTDFTLKISRVEAEDLGVYYCFQGSHVPLTFGAGTKLELKR
notes: Hybridoma-derived mouse IgG1; also called ascites Pro-G purified antibody; purified antibody

B2: recombinant anti-Hpr antibody, clone SFII 134.3 (antibody, V domains shown)
VH: QIQLVQSGPELKKPGETVKISCKASGYIFTNYGMNWVRQAPGKGLKWMGWINSYTGEATYTDDLKGRFAFSLESSASTAYLQINNLKNEDTATYFCAREGYGDYGYSFDYWGQGTTLTVSS
VL: DIQMTQSPASLSASVGETVTITCRATKNIYTYLAWYQQKQGKSPQFLVYNAKTLAEGVPSRFSGSGSGTQFSLKINSLQPEDFGNYYCQHHYGTPRTFGGGTKLEIK
notes: Recombinant form of mouse anti-Hpr clone SFII 134.3; it was detected with goat anti-mouse secondary; also called recombinant antibody
binding result [3]: no binding (tested: 1:10,000 dilution of antibody)

B3: ascites Prot-G purified anti-Hpr antibody, clone SFII 134.3 (mouse IgG2a) (antibody, V domains shown)
VH: QIQLVQSGPELKKPGETVKISCKASGYIFTNYGMNWVRQAPGKGLKWMGWINSYTGEATYTDDLKGRFAFSLESSASTAYLQINNLKNEDTATYFCAREGYGDYGYSFDYWGQGTTLTVSS
VL: DIQMTQSPASLSASVGETVTITCRATKNIYTYLAWYQQKQGKSPQFLVYNAKTLAEGVPSRFSGSGSGTQFSLKINSLQPEDFGNYYCQHHYGTPRTFGGGTKLEIKR
notes: Hybridoma-derived mouse IgG2a; also called ascites Pro-G purified antibody; purified antibody
binding result [3]: no binding (tested: 1:10,000 dilution of antibody)

fold increase in average cell fluorescence compared to isotype control [4]: 2 × | fold increase of measured fluorescence per cell compared to isotype control [5]: 20 ×
B4: Clone 13.11×BCMAscFv: bsAbBCMA/ApoL1, anti-ApoL1, BCMA IgG1-scFv (Heavy Chain C-terminus) bispecific antibody (bispecific antibody)
heavy: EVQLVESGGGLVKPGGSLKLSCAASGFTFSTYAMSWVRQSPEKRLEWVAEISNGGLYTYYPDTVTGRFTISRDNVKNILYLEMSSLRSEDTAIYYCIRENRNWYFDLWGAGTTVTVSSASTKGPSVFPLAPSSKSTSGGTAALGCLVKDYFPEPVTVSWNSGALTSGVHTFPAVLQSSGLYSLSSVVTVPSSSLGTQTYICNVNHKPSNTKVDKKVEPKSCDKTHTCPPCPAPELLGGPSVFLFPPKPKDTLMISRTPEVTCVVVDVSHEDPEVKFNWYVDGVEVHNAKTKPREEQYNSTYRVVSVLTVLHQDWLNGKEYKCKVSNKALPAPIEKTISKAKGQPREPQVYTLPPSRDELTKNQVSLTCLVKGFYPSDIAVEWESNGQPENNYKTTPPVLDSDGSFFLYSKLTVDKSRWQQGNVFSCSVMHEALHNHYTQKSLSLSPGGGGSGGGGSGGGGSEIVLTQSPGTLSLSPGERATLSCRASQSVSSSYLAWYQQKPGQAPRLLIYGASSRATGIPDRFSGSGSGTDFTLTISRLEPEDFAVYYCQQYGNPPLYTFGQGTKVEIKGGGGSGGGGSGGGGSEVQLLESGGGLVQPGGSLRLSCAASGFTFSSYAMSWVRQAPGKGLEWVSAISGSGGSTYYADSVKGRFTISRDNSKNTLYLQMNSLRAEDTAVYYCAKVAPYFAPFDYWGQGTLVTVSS
light: DVLMTQTPLSLPVSLGDQASISCRSSQSIVNSNGNTYLEWYLQKPGQSPKLLIYKVSNRFSGVPDRFSGSGSGTDFTLKISRVEAEDLGVYYCFQGSHVPLTFGAGTKLEIKRTVAAPSVFIFPPSDEQLKSGTASVVCLLNNFYPREAKVQWKVDNALQSGNSQESVTEQDSKDSTYSLSSTLTLSKADYEKHKVYACEVTHQGLSSPVTKSFNRGEC
notes: It was used unlabeled, HRP-labeled or Alexa Fluor 488 labeled, depending on the assay; also called ApoL1-BCMA-bsAb; 488-bsAb

B5: BCMA Protein, Human, Recombinant (ECD, rFc Tag) (Sino Biological 10620-H15H) (Fc fusion, UniProt Q02223 1-54, looked up)
chain: MLQMAGQCSQNEYFDSLLHACIPCQLRCSSNTPPLTCQRYCNASVTNSVKGTNA
notes: extracellular domain; Bought protein; also called recombinant BCMA; rabbit Fc tagged BCMA; not shown: rabbit Fc tag
binding result [6]: no binding (tested: 1 µg/mL rabbit Fc tagged BCMA)

From US20260071003A1 (UNIVERSITY OF GEORGIA RESEARCH FOUNDATION, published 2026)
